Assay results as given in US8986682B2, “Method to increase the absorption of unsaturated fatty acids by human infants” (Swedish Orphan Biovitrum AB (publ), priority 2010, dated 2015).
Where “and” joins values, the source holds several entries; their conditions need not be identical. Equal entries are not always repeated. Marks after values point to notes of the source that are not given here.

Test system: preterm infants born before week 32 of gestational age
Test: Coefficient of fat absorption (CFA), fat balance of food and stool by gas chromatography, studies BVT.BSSL-020/-021
Format: in vivo, human
Conditions: PP
Procedure: Patients were randomized to infant formula/pasteurized breast milk supplemented with rhBSSL at a final concentration of 0.15 g/L, or to infant formula/pasteurized breast milk “supplemented” with sterile water for injection (as placebo) for the first 7 days. After a washout period of 2 days, the patient was “crossed over” to the other treatment regimen during a second 7-day treatment period. Collection of feces samples for CFA assessment were performed during the last 3 days (72 hours) of each treatment period.
The collection of feces for the determination of CFA was performed over a period corresponding to the fat, i.e., formula or milk, ingestion during 72 hours toward the end of each treatment period. Diapers supplied to each site were used for feces collection. During the two treatment periods, a carmine red tracer dye was given as a marker together with a meal (approximately at noon) on Day 4 and Day 13, respectively, and collection of stool commenced with the appearance of the first carmine red marker in the stool. The stool containing the first marker was collected and the date and time of the first stool collected was recorded on the CRF. At 72 hours following administration of the first red marker, the second carmine marker was given, and stool collection continued until the second carmine marker appeared. The stool containing the second marker was not collected, but the date and time of the appearance of the second marker was recorded on the CRF. Diapers were weighed before placement and after removal and the difference in weight was recorded on the CRF. The times of each collection and the elapsed duration of the entire collection period was also recorded on the CRF. The use of ointments for the treatment of skin irritation was prohibited during the stool collection period. Diapers were to be changed frequently during the collection period to keep the skin dry. Patients with skin rash severity leading to discontinuation of the stool collection were to be withdrawn from the study. Specific collection methods were provided in a separate laboratory manual. If applicable, vomit from the stool collection periods of both treatment periods was weighed. A small cloth/linen was weighed and placed under the head of each infant. When the cloth/linen was soiled with vomit, it was removed and re-weighed. If an additional cloth was used to remove vomit from the infant, that cloth was also weighed before and after use. The weight of vomit (total weight minus the weight of the cloth/linen) was recorded on the CRF. All other feed losses, e.g., formula or milk left in bottle, were measured and the amount accounted for in the calculation of the volume of formula consumed at each feeding.
Feces samples, the formula (study 020) and the milk aliquots (study 021) were analyzed by a central laboratory. Individual fatty acids, including the long-chain polyunsaturated fatty acids DHA and AA, were quantified in feces and feed by a gas chromatographic method following extraction by the Folch method. In both studies, the Omegawax 250 column (Supelco) was used for separation of the fatty acids. However, due to co-elution of DHA with nervonic acid (C24:1), which was only present in the breast milk, samples from patients of the per-protocol analysis set from study 021 were also analyzed using a SP-2380 column (Supelco) in order to quantify DHA for those samples from study 021. […] Total lipids were calculated as the sum of the individual fatty acids. (See Section 7.5.1). The same analytical principle was used to determine lipids in each of the batches of formula and aliquots of breast milk used in the study. […]

[1] = BVT.BSSL-020 (infant formula), 72-hour collection period
[2] = BVT.BSSL-021 (pasteurized breast milk)

B1: rhBSSL: recombinant human bile-salt-stimulated lipase, SEQ ID. NO. 1, expressed from recombinant CHO cells; used in both clinical trials (protein, listed as Homo sapiens)
chain: AKLGAVYTEGGFVEGVNKKLGLLGDSVDIFKGIPFAAPTKALENPQPHPGWQGTLKAKNFKKRCLQATITQDSTYGDEDCLYLNIWVPQGRKQVSRDLPVMIWIYGGAFLMGSGHGANFLNNYLYDGEEIATRGNVIVVTFNYRVGPLGFLSTGDANLPGNYGLRDQHMAIAWVKRNIAAFGGDPNNITLFGESAGGASVSLQTLSPYNKGLIRRAISQSGVALSPWVIQKNPLFWAKKVAEKVGCPVGDAARMAQCLKVTDPRALTLAYKVPLAGLEYPMLHYVGFVPVIDGDFIPADPINLYANAADIDYIAGTNNMDGHIFASIDMPAINKGNKKVTEEDFYKLVSEFTITKGLRGAKTTFDVYTESWAQDPSQENKKKTVVDFETDVLFLVPTEIALAQHRANAKSAKTYAYLFSHPSRMPVYPKWVGADHADDIQYVFGKPFATPTGYRPQDRTVSKAMIAYWTNFAKTGDPNMGDSAVPTHWEPYTTENSGYLEITKKMGSSSMKRSLRTNFLRYWTLTYLALPTVTDQEATPVPPTGDSEATPVPPTGDSETAPVPPTGDSGAPPVPPTGDSGAPPVPPTGDSGAPPVPPTGDSGAPPVPPTGDSGAPPVPPTGDSGAPPVPPTGDSGAPPVPPTGDAGPPPVPPTGDSGAPPVPPTGDSGAPPVTPTGDSETAPVPPTGDSGAPPVPPTGDSEAAPVPPTDDSKEAQMPAVIRF
- CFA (overall), LS Mean (BVT.BSSL-020 (infant formula)): 69.46%
- CFA (overall), LS Mean Difference (rhBSSL − Placebo) (BVT.BSSL-020 (infant formula)): 2.08%
- CFA (overall), Maximum (BVT.BSSL-020 (infant formula)): 89.0%
- CFA (overall), Mean (SD) (BVT.BSSL-020 (infant formula)): 69.55 (14.452) %
- CFA (overall), Median (BVT.BSSL-020 (infant formula)): 70.99%
- CFA (overall), Minimum (BVT.BSSL-020 (infant formula)): 36.8%
- CFA for C12:0 (BVT.BSSL-020 (infant formula)): 89.70%
- CFA for C12:0, Difference (rhBSSL − Placebo) (BVT.BSSL-020 (infant formula)): 1.18%
- CFA for C14:0 (BVT.BSSL-020 (infant formula)): 76.56%
- CFA for C14:0, Difference (rhBSSL − Placebo) (BVT.BSSL-020 (infant formula)): 3.19%
- CFA for C16:0 (BVT.BSSL-020 (infant formula)): 46.95%
- CFA for C16:0, Difference (rhBSSL − Placebo) (BVT.BSSL-020 (infant formula)): 0.45%
- CFA for C18:0 (BVT.BSSL-020 (infant formula)): 42.20%
- CFA for C18:0, Difference (rhBSSL − Placebo) (BVT.BSSL-020 (infant formula)): −1.10%
- CFA for C18:1 (BVT.BSSL-020 (infant formula)): 76.24%
- CFA for C18:1, Difference (rhBSSL − Placebo) (BVT.BSSL-020 (infant formula)): 2.37%
- CFA for C18:2 n-6 (BVT.BSSL-020 (infant formula)): 83.91%
- CFA for C18:2 n-6, Difference (rhBSSL − Placebo) (BVT.BSSL-020 (infant formula)): 4.99%
- CFA for C18:3 n-3 (BVT.BSSL-020 (infant formula)): 87.79%
- CFA for C18:3 n-3, Difference (rhBSSL − Placebo) (BVT.BSSL-020 (infant formula)): 4.42%
- CFA for C20:4 n-6 (AA) (BVT.BSSL-020 (infant formula)): 82.96%
- CFA for C20:4 n-6 (AA), Difference (rhBSSL − Placebo) (BVT.BSSL-020 (infant formula)): 7.14%
- CFA for C22:6 n-3 (DHA) (BVT.BSSL-020 (infant formula)): 81.15%
- CFA for C22:6 n-3 (DHA), Difference (rhBSSL − Placebo) (BVT.BSSL-020 (infant formula)): 6.85%
- Total Amount of Fat in Stool, Maximum [1]: 15.0 g
- Total Amount of Fat in Stool, Mean (SD) [1]: 8.53 g and 8.53 (3.416) g
- Total Amount of Fat in Stool, Median [1]: 8.63 g
- Total Amount of Fat in Stool, Minimum [1]: 3.2 g
- Coefficient of absorption of the sum of all LCPUFAs, LS mean (BVT.BSSL-020 Formula): 82.2%
- Coefficient of absorption of the sum of all LCPUFAs, LS mean difference (rhBSSL-Placebo) (BVT.BSSL-020 Formula): 7.01%
- Coefficient of absorption of the sum of all polyunsaturated fatty acids, LS mean (BVT.BSSL-020 Formula): 84.0%
- Coefficient of absorption of the sum of all polyunsaturated fatty acids, LS mean difference (rhBSSL-Placebo) (BVT.BSSL-020 Formula): 5.05%
- Coefficient of absorption of the sum of all saturated fatty acids, LS mean (BVT.BSSL-020 Formula): 61.4%
- Coefficient of absorption of the sum of all saturated fatty acids, LS mean difference (rhBSSL-Placebo) (BVT.BSSL-020 Formula): 0.08%
- Coefficient of absorption of the sum of all unsaturated fatty acids, LS mean (BVT.BSSL-020 Formula): 78.8%
- Coefficient of absorption of the sum of all unsaturated fatty acids, LS mean difference (rhBSSL-Placebo) (BVT.BSSL-020 Formula): 3.25%
- Coefficient of absorption of the sum of all LCPUFAs, LS mean (BVT.BSSL-020 and 021 Combined): 76.1%
- Coefficient of absorption of the sum of all LCPUFAs, LS mean difference (rhBSSL-Placebo) (BVT.BSSL-020 and 021 Combined): 7.33%
- Coefficient of absorption of the sum of all polyunsaturated fatty acids, LS mean (BVT.BSSL-020 and 021 Combined): 77.3%
- Coefficient of absorption of the sum of all polyunsaturated fatty acids, LS mean difference (rhBSSL-Placebo) (BVT.BSSL-020 and 021 Combined): 5.82%
- Coefficient of absorption of the sum of all saturated fatty acids, LS mean (BVT.BSSL-020 and 021 Combined): 63.8%
- Coefficient of absorption of the sum of all saturated fatty acids, LS mean difference (rhBSSL-Placebo) (BVT.BSSL-020 and 021 Combined): 2.25%
- Coefficient of absorption of the sum of all unsaturated fatty acids, LS mean (BVT.BSSL-020 and 021 Combined): 74.7%
- Coefficient of absorption of the sum of all unsaturated fatty acids, LS mean difference (rhBSSL-Placebo) (BVT.BSSL-020 and 021 Combined): 4.22%
- CFA (overall), LS Mean [2]: 68.56%
- CFA (overall), LS Mean Difference (rhBSSL − Placebo) [2]: 4.86%
- CFA (overall), Maximum [2]: 93.2%
- CFA (overall), Mean (SD) [2]: 68.46 (15.333) %
- CFA (overall), Median [2]: 75.41%
- CFA (overall), Minimum [2]: 31.2%
- CFA for C12:0 [2]: 87.94%
- CFA for C12:0, Difference (rhBSSL − Placebo) [2]: 3.50%
- CFA for C14:0 [2]: 75.49%
- CFA for C14:0, Difference (rhBSSL − Placebo) [2]: 5.94* %
- CFA for C16:0 [2]: 63.88%
- CFA for C16:0, Difference (rhBSSL − Placebo) [2]: 4.46%
- CFA for C16:1 [2]: 96.24%
- CFA for C16:1, Difference (rhBSSL − Placebo) [2]: 0.45%
- CFA for C18:0 [2]: 46.11%
- CFA for C18:0, Difference (rhBSSL − Placebo) [2]: 3.63%
- CFA for C18:1 [2]: 71.01%
- CFA for C18:1, Difference (rhBSSL − Placebo) [2]: 4.77%
- CFA for C18:2 n-6 [2]: 71.26%
- CFA for C18:2 n-6, Difference (rhBSSL − Placebo) [2]: 6.98* %
- CFA for C18:3 n-3 [2]: 64.39%
- CFA for C18:3 n-3, Difference (rhBSSL − Placebo) [2]: 2.04%
- CFA for C18:3 n-6 [2]: 63.94%
- CFA for C18:3 n-6, Difference (rhBSSL − Placebo) [2]: 5.82%
- CFA for C20:1 [2]: 52.09%
- CFA for C20:1, Difference (rhBSSL − Placebo) [2]: 8.53%
- CFA for C20:2 n-6 [2]: 53.09%
- CFA for C20:2 n-6, Difference (rhBSSL − Placebo) [2]: 8.37* %
- CFA for C20:3 n-6 (sum of C20:3 n-6 and C20:3 n-3) [2]: 67.39§ %
